Results on 1 substance are retold here after publication PMC1929070.

The assay concerns the target GST-XNRL (Xenopus laevis). Description: pull-down; Glutathione-Sepharose-bound GST-XNRL (or GST alone) incubated with affinity purified MYC fusion proteins in binding buffer (0.1% Triton X-100, 50 mM HEPES pH 7.5, 150 mM NaCl, 1% glycerol, 1.5 mM MgCl2, 5 mM EGTA) overnight at 4°C, washed three times; anti-MYC Western blot, bands quantified by Image J (retained/input, normalised to MYC-XOTX2); two independent experiments.

MYC-XOTX5b (natural protein): the fold binding relative to MYC-XOTX2 (retained/input ratio) stood at 2.4 fold.
